Source: patent US20190091326A1

Key:
[1] = target: 1209 V1/V2/V3/C3 scaffold grown in kifunensine; experiment: ELISA, mAb titrated on scaffold, absorbance 492 nm; curve 509 (1209 kif)
[2] = target: A244-rgp120 grown in kifunensine treated cells (HIV-1 isolate A244); experiment: ELISA, mAb titrated on gp120, absorbance 492 nm; curve 496 (A244 gp120 kif)
[3] = target: A244-rgp120 grown in GnTI- cells (HIV-1 isolate A244); experiment: ELISA, mAb titrated on gp120, absorbance 492 nm; curve 495 (A244 gp120 GNTI-)

PGT128 broadly neutralizing monoclonal antibody
EC50 [1]: 0.09 µg/mL
EC50 [2]: < 0.01 µg/mL
EC50 [3]: < 0.01 µg/mL
